This note sets out measurements from article PMC3005887 (Research letters in biochemistry, 2009).

Experiment [1] addresses T1, 6Hishub/6HisLCb (clathrin hub with bound clathrin light chain b) (bovine, UniProt P49951 1074-1675; P04975 1-228).
T1 sequence (looked up) 1: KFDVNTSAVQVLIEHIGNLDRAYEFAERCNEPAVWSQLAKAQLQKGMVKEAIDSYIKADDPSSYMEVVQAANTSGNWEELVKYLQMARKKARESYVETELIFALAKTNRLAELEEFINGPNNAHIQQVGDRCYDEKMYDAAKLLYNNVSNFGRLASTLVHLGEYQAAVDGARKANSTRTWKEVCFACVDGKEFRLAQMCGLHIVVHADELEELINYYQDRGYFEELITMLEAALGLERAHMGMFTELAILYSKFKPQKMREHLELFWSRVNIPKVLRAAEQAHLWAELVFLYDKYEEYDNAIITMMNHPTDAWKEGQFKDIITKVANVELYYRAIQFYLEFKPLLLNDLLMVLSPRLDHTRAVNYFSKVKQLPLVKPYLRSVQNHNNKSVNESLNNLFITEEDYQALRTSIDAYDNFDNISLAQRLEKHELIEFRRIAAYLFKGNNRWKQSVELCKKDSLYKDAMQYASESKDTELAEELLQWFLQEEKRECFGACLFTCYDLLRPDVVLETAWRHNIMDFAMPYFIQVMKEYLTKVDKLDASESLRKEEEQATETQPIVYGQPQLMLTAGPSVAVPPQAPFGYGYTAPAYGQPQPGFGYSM
T1 sequence (looked up) 2: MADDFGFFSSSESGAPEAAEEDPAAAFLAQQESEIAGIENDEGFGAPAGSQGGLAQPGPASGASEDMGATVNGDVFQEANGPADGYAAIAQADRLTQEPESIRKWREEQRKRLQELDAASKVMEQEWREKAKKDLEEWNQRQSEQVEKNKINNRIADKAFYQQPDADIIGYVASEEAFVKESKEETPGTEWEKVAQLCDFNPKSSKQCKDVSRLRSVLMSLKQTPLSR
The experiment in a line: pull-down; GST or GST-HIP1h on glutathione Sepharose 4B beads; 6HisLCb and hub premixed 3:1 at 4 C for at least 30 min; 0.4 nmol hub alone or 1.9 nmol hub/6HisLCb complex; binding buffer 50 mM Tris, 200 mM KCl, 1 mM EDTA, 1% Triton X-100, 50 mM imidazole, 0.5 mg/ml ovalbumin, pH 8.0; 4 C, 1 hour; Western blot (anti-His, CON.1, anti-GST). To be noted: both partners purified. (In general: Immunoblotting shows a protein as a band on a membrane.)

In experiment [2] the target is T2, 6Hishub alone (clathrin hub, bovine clathrin heavy chain aa1074-1675, no bound LCb) (bovine, UniProt P49951 1074-1675).
T2 sequence (looked up): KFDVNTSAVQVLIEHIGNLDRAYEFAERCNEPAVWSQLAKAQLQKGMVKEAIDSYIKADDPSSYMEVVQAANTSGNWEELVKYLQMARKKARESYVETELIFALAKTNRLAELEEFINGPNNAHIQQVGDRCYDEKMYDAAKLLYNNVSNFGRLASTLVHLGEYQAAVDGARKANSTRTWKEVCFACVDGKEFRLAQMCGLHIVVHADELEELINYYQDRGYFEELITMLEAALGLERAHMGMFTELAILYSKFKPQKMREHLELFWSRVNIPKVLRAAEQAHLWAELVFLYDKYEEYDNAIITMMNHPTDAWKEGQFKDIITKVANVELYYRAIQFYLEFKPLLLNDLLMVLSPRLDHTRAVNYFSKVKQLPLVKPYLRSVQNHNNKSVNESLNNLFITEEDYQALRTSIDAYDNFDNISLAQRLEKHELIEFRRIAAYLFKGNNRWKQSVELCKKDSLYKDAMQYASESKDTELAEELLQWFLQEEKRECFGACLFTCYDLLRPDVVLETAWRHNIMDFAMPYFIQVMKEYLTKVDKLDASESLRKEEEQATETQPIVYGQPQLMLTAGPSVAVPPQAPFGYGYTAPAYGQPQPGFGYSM
Described as above. The note with it: both partners purified.

B1: GST-HIP1h (Huntingtin-interacting protein 1, aa370-644), wild type (domain or fragment, human, UniProt O00291-1 370-644, looked up)
chain: KDEKDHLIERLYREISGLKAQLENMKTESQRVVLQLKGHVSELEADLAEQQHLRQQAADDCEFLRAELDELRRQREDTEKAQRSLSEIERKAQANEQRYSKLKEKYSELVQNHADLLRKNAEVTKQVSMARQAQVDLEREKKELEDSLERISDQGQRKTQEQLEVLESLKQELATSQRELQVLQGSLETSAQSEANWAAEFAELEKERDSLVSGAAHREEELSALRKELQDTQLKLASTEESMCQLAKDQRKMLLVGSRKAAEQVIQDALNQLEE
For B1, the binding result in experiment [1] is reported as “binds”.

B2: GST-HIP1h (aa370-644) K511E (domain or fragment, human, UniProt O00291-1 370-644, looked up)
chain: KDEKDHLIERLYREISGLKAQLENMKTESQRVVLQLKGHVSELEADLAEQQHLRQQAADDCEFLRAELDELRRQREDTEKAQRSLSEIERKAQANEQRYSKLKEKYSELVQNHADLLRKNAEVTKQVSMARQAQVDLEREKEELEDSLERISDQGQRKTQEQLEVLESLKQELATSQRELQVLQGSLETSAQSEANWAAEFAELEKERDSLVSGAAHREEELSALRKELQDTQLKLASTEESMCQLAKDQRKMLLVGSRKAAEQVIQDALNQLEE
As for B2, the binding result in experiment [1] is “binds”.

B3: GST-HIP1h (aa370-644) R500E (domain or fragment, human, UniProt O00291-1 370-644, looked up)
chain: KDEKDHLIERLYREISGLKAQLENMKTESQRVVLQLKGHVSELEADLAEQQHLRQQAADDCEFLRAELDELRRQREDTEKAQRSLSEIERKAQANEQRYSKLKEKYSELVQNHADLLRKNAEVTKQVSMAEQAQVDLEREKKELEDSLERISDQGQRKTQEQLEVLESLKQELATSQRELQVLQGSLETSAQSEANWAAEFAELEKERDSLVSGAAHREEELSALRKELQDTQLKLASTEESMCQLAKDQRKMLLVGSRKAAEQVIQDALNQLEE
As for B3, the binding result in experiment [1] is recorded as “binds”.

B4: GST-HIP1h (aa370-644) R508E (domain or fragment, human, UniProt O00291-1 370-644, looked up)
chain: KDEKDHLIERLYREISGLKAQLENMKTESQRVVLQLKGHVSELEADLAEQQHLRQQAADDCEFLRAELDELRRQREDTEKAQRSLSEIERKAQANEQRYSKLKEKYSELVQNHADLLRKNAEVTKQVSMARQAQVDLEEEKKELEDSLERISDQGQRKTQEQLEVLESLKQELATSQRELQVLQGSLETSAQSEANWAAEFAELEKERDSLVSGAAHREEELSALRKELQDTQLKLASTEESMCQLAKDQRKMLLVGSRKAAEQVIQDALNQLEE
Consider B4, for which the binding result in experiment [1] was “binds”.

B5: 6HisLCb (N-terminally histidine-tagged bovine clathrin light chain b with the neuronal insert) (natural protein, UniProt P04975 1-228, looked up)
chain: MADDFGFFSSSESGAPEAAEEDPAAAFLAQQESEIAGIENDEGFGAPAGSQGGLAQPGPASGASEDMGATVNGDVFQEANGPADGYAAIAQADRLTQEPESIRKWREEQRKRLQELDAASKVMEQEWREKAKKDLEEWNQRQSEQVEKNKINNRIADKAFYQQPDADIIGYVASEEAFVKESKEETPGTEWEKVAQLCDFNPKSSKQCKDVSRLRSVLMSLKQTPLSR
For B5, the binding result in experiment [2] is listed as “binds”.
